Test in all cases: cell-based or functional assay
For test [1], the target named is T1, FOLR1 (human, UniProt P15328 25-234).
Test [2] has as its target T1, FOLR1. The source holds these as a separate data set.
Test [3] has as its target T2, HER2 (human, UniProt P04626 23-1255).
Test [4] has as its target T2, HER2. This is another data set of the same source.

T1 sequence (P15328 25-234): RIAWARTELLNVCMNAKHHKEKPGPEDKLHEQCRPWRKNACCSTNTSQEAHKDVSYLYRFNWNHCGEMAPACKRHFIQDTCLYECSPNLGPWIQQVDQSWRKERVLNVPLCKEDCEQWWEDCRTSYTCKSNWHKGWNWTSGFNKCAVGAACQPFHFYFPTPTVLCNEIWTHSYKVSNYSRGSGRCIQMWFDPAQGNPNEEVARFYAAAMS

B1: anti-FOLR1/CD3 Bi-Fc (bispecific antibody)
chain 1: not shown
chain 2: HMSSVSAQAAAEPKSSDKTHTCPPCPAPEAAGGPSVFLFPPKPKDTLMISRTPEVTCVVVDVSHEDPEVKFNWYVDGVEVHNAKTKPREEQYNSTYRVVSVLTVLHQDWLNGKEYKCKVSNKALPAPIEKTISKAKGQPREPQVYTLPPSREEMTKNQVSLTCLVKGFYPSDIAVEWESNGQPENNYDTTPPVLDSDGSFFLYSDLTVDKSRWQQGNVFSCSVMHEALHNHYTQKSLSLSPGK
For the molecule B1, in the test with FOLR1 [1], the “EC50 (pM), T cell-dependent cell cytolysis (TDCC), Cal-51 cells” value was found to be 1.27 pM and the “EC50 (pM), T cell-dependent cell cytolysis (TDCC), T47D cells” value is 1.35 pM. In addition, in the test with FOLR1 [2], the “EC50 (pM) for eliciting IFN-γ secretion by T cells, T47D cells” value came out at 48.6 pM; the “EC50 (pM) for eliciting IL-2 secretion by T cells, T47D cells” value was determined as 67.3 pM; the “EC50 (pM) for eliciting IL-10 secretion by T cells, T47D cells” value amounted to 110 pM; the “EC50 (pM) for eliciting IL-13 secretion by T cells, T47D cells” value is 127 pM. The “EC50 (pM) for eliciting TNF-α secretion by T cells, T47D cells” value with FOLR1 [2] worked out at 41.2 pM.

B2: anti-HER2/CD3 Bi-Fc (bispecific antibody)
chain 1: not shown
chain 2: HMSSVSAQAAAEPKSSDKTHTCPPCPAPEAAGGPSVFLFPPKPKDTLMISRTPEVTCVVVDVSHEDPEVKFNWYVDGVEVHNAKTKPREEQYNSTYRVVSVLTVLHQDWLNGKEYKCKVSNKALPAPIEKTISKAKGQPREPQVYTLPPSREEMTKNQVSLTCLVKGFYPSDIAVEWESNGQPENNYDTTPPVLDSDGSFFLYSDLTVDKSRWQQGNVFSCSVMHEALHNHYTQKSLSLSPGK
Take B2: in the test with HER2 [3], the “EC50 (pM), T cell-dependent cell cytolysis (TDCC), JIMT-1 cells” value worked out at 11.5 pM and the “EC50 (pM), T cell-dependent cell cytolysis (TDCC), T47D cells” value stood at 1.03 pM. For the same molecule, in the test with HER2 [4], the “EC50 (pM) for eliciting IFN-γ secretion by T cells, JIMT-1 cells” value was found to be 32.9 pM; the “EC50 (pM) for eliciting IL-2 secretion by T cells, JIMT-1 cells” value amounted to 22.3 pM; the “EC50 (pM) for eliciting IL-10 secretion by T cells, JIMT-1 cells” value came to 9.6 pM; the “EC50 (pM) for eliciting IL-13 secretion by T cells, JIMT-1 cells” value is 16.4 pM. In addition, the “EC50 (pM) for eliciting TNF-α secretion by T cells, JIMT-1 cells” value with HER2 [4] worked out at 19.5 pM.

The values above are taken from patent US20180230220A1 (Amgen, published 2018).
